Values quoted from earlier work in PMC4664810.
Read-outs that look alike come from different tables or passages of the source.

Columns and labels:
CD20 (Homo sapiens) [1] = biological target: CD20 (Homo sapiens) (UniProt P11836)
CD20 (Homo sapiens) [2] = biological target: CD20 (Homo sapiens) (UniProt P11836); remark: listed apart in the source

Sequence of CD20 (Homo sapiens) (P11836 whole entry): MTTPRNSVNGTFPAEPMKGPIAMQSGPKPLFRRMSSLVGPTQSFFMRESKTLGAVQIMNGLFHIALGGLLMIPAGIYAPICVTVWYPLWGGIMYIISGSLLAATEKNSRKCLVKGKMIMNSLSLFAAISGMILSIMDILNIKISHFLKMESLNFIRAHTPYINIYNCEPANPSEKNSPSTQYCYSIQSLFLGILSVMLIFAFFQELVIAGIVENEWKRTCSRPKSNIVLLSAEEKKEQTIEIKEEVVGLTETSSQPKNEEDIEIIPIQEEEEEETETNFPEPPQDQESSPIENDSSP

Substance	Kd (CD20 (Homo sapiens) [1])	Kd (CD20 (Homo sapiens) [2])
ofatumumab	4.76 nM	
rituximab		5.45 nM
